Here are results for 3 molecules from paper PMC8635433 (2021).

What all share (assay): SPR
(In general: In SPR one partner is held on a chip, and binding of the other changes the refractive index at the surface.)

For test [1], the target named is T1, CD46, immobilised for SPR (UniProt P15529 35-392).
T1 chain: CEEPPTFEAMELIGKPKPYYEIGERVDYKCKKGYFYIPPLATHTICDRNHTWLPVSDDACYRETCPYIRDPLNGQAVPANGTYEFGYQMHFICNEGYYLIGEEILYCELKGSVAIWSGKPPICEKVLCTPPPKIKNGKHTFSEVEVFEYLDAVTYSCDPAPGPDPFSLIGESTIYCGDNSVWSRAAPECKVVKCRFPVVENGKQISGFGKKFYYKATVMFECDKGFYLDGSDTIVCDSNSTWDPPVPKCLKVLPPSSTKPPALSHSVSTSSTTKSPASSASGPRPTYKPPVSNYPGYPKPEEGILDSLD

Test [2] concerns the target T1, CD46, immobilised for SPR.
In test [3] the target is T2, coxsackie and adenovirus receptor (CAR), immobilised for SPR (UniProt P78310 20-365).
T2 chain: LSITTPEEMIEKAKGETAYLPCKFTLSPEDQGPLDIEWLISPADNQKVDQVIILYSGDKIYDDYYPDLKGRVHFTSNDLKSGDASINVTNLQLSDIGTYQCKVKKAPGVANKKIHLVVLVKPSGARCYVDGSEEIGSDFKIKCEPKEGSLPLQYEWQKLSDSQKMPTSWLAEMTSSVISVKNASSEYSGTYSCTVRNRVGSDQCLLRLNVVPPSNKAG

B1: HAdV-B35 fiber knob protein (domain or fragment)
chain: FNNGDICIKDSINTLWTGINPPPNCQIVENTNTNDGKLTLVLVKNGGLVNGYVSLVGVSDTVNQMFTQKTANIQLRLYFDSSGNLLTEESDLKIPLKNKSSTATSETVASSKAFMPSTTAYPFNTTTRDSENYIHGICYYMTSYDRSLFPLNISIMLNSRMISSNVAYAIQFEWNLNASESPESNIATLTTSPFFFSYITEDDN
As to B1, the koff in test [1] came out at 0.000994 s⁻¹. The Kd in test [2] stood at 4.38 nM.

B2: ChAdOx1 fiber knob protein (domain or fragment)
chain: GALTAGNKEDDKLTLWTTPDPSPNCQLLSDRDAKFTLCLTKCGSQILGTVAVAAVTVGSALNPINDTVKSAIVFLRFDSDGVLMSNSSMVGDYWNFREGQTTQSVAYTNAVGFMPNLGAYPKTQSKTPKNSIVSQVYLNGETTMPMTLTITFNGTDEKDTTPVSTYSMTFTWQWTGDYKDKNITFATNSFTFSYMAQE
In turn, B2 registered an off-rate constant (koff) in test [3] of 0.00018 s⁻¹.

B3: HAdV-C5 fiber knob protein (domain or fragment)
chain: TGAITVGNKNNDKLTLWTTPAPSPNCRLNAEKDAKLTLVLTKCGSQILATVSVLAVKGSLAPISGTVQSAHLIIRFDENGVLLNNSFLDPEYWNFRNGDLTEGTAYTNAVGFMPNLSAYPKSHGKTAKSNIVSQVYLNGDKTKPVTLTITLNGTQETGDTTPSAYSMSFSWDWSGHNYINEIFATSSYTFSYIAQE
With B3, the koff in test [3] is 0.000109 s⁻¹.

What is called koff is the rate constant with which the complex falls apart. Low readings indicate a long-lived complex, high ones a short-lived complex. The term Kd denotes the constant that tells how readily two partners part at equilibrium. The low end stands for a tighter complex, the high end for a looser complex.
